Measurements published in patent US20120034160A1 (AbbVie / Abbott, published 2012).
Positions count from the first letter of the chain named.

T1: Recombinant Human IL-17 (human, UniProt Q16552 20-155, limits assumed)
T1 construct: bought reagent
T1 sequence (looked up): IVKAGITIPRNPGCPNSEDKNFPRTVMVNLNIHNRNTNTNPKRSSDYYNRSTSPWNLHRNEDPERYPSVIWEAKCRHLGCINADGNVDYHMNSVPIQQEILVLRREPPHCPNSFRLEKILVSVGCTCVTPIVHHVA

B1: DVD1263 (bispecific antibody, human IgG1, kappa)
heavy: not shown
light: DIQMTQSPSSLSASVGDRVTITCRASSGIISYIDWFQQKPGKAPKRLIYATFDLASGVPSRFSGSGSGTDYTLTISSLQPEDFATYYCRQVGSYPETFGQGTKLEIKRTVAAPDIQMTQSPSSLSASVGDRVTITCRASGNIHNYLTWYQQTPGKAPKLLIYNAKTLADGVPSRFSGSGSGTDYTFTISSLQPEDIATYYCQHFWSIPYTFGQGTKLQITRTVAAPSVFIFPPSDEQLKSGTASVVCLLNNFYPREAKVQWKVDNALQSGNSQESVTEQDSKDSTYSLSSTLTLSKADYEKHKVYACEVTHQGLSSPVTKSFNRGEC
notes: V1 wt hIgG1, V2 kappa; also called DVD1263H; DVD1263L
B2: DVD1265 (bispecific antibody, human IgG1, kappa)
heavy: not shown
light: B1 light
notes: V1 wt hIgG1, V2 kappa; also called DVD1265H; DVD1265L
B3: DVD1267 (bispecific antibody, human IgG1, kappa)
heavy: not shown
light: DIQMTQSPSSLSASVGDRVTITCRASSGIISYIDWFQQKPGKAPKRLIYATFDLASGVPSRFSGSGSGTDYTLTISSLQPEDFATYYCRQVGSYPETFGQGTKLEIKRTVAAPDTQVTQSPSSLSASVGDRVTITCITSTDIDVDMNWYQQKPGKPPKLLISQGNTLRPGVPSRFSSSGSGTDFTFTISSLQPEDFATYYCLQSDNLPLTFGQGTKLEIKRTVAAPSVFIFPPSDEQLKSGTASVVCLLNNFYPREAKVQWKVDNALQSGNSQESVTEQDSKDSTYSLSSTLTLSKADYEKHKVYACEVTHQGLSSPVTKSFNRGEC
notes: DVD-Ig, outer AB273, inner AB270, linker set 1; V1 wt hIgG1, V2 kappa; also called DVD1267H; DVD1267L
B4: DVD1269 (bispecific antibody, human IgG1, kappa)
heavy: not shown
light: DIQMTQSPSSLSASVGDRVTITCRASSGIISYIDWFQQKPGKAPKRLIYATFDLASGVPSRFSGSGSGTDYTLTISSLQPEDFATYYCRQVGSYPETFGQGTKLEIKRTVAAPDTVVTQSPAFLSVTPGEKVTITCITSTDIDVDMNWYQQKPDQPPKLLISQGNTLRPGVPSRFSSSGSGTDFTFTISSLEAEDAATYYCLQSDNLPLTFGQGTKLEIKRTVAAPSVFIFPPSDEQLKSGTASVVCLLNNFYPREAKVQWKVDNALQSGNSQESVTEQDSKDSTYSLSSTLTLSKADYEKHKVYACEVTHQGLSSPVTKSFNRGEC
notes: DVD-Ig, outer AB273, inner AB271, linker set 1; V1 wt hIgG1, V2 kappa; also called DVD1269H; DVD1269L
B5: DVD1271 (bispecific antibody, human IgG1, kappa)
heavy: not shown
light: B3 light with D114E, Q116T
notes: DVD-Ig, outer AB273, inner AB272, linker set 1; V1 wt hIgG1, V2 kappa; also called DVD1271H; DVD1271L
B6: DVD1273 (bispecific antibody, human IgG1, kappa)
heavy: not shown
light: EIVLTQSPDFQSVTPKEKVTITCRASQDIGSELHWYQQKPDQPPKLLIKYASHSTSGVPSRFSGSGSGTDFTLTINGLEAEDAGTYYCHQTDSLPYTFGPGTKVDIKRTVAAPDIQMTQSPSSLSASVGDRVTITCRASGNIHNYLTWYQQTPGKAPKLLIYNAKTLADGVPSRFSGSGSGTDYTFTISSLQPEDIATYYCQHFWSIPYTFGQGTKLQITRTVAAPSVFIFPPSDEQLKSGTASVVCLLNNFYPREAKVQWKVDNALQSGNSQESVTEQDSKDSTYSLSSTLTLSKADYEKHKVYACEVTHQGLSSPVTKSFNRGEC
notes: V1 wt hIgG1, V2 kappa; also called DVD1273H; DVD1273L
B7: DVD1275 (bispecific antibody, human IgG1, kappa)
heavy: not shown
light: B6 light
notes: V1 wt hIgG1, V2 kappa; also called DVD1275H; DVD1275L
B8: DVD1277 (bispecific antibody, human IgG1, kappa)
heavy: not shown
light: EIVLTQSPDFQSVTPKEKVTITCRASQDIGSELHWYQQKPDQPPKLLIKYASHSTSGVPSRFSGSGSGTDFTLTINGLEAEDAGTYYCHQTDSLPYTFGPGTKVDIKRTVAAPDTQVTQSPSSLSASVGDRVTITCITSTDIDVDMNWYQQKPGKPPKLLISQGNTLRPGVPSRFSSSGSGTDFTFTISSLQPEDFATYYCLQSDNLPLTFGQGTKLEIKRTVAAPSVFIFPPSDEQLKSGTASVVCLLNNFYPREAKVQWKVDNALQSGNSQESVTEQDSKDSTYSLSSTLTLSKADYEKHKVYACEVTHQGLSSPVTKSFNRGEC
notes: DVD-Ig, outer AB274, inner AB270, linker set 1; V1 wt hIgG1, V2 kappa; also called DVD1277H; DVD1277L
B9: DVD1279 (bispecific antibody, human IgG1, kappa)
heavy: not shown
light: EIVLTQSPDFQSVTPKEKVTITCRASQDIGSELHWYQQKPDQPPKLLIKYASHSTSGVPSRFSGSGSGTDFTLTINGLEAEDAGTYYCHQTDSLPYTFGPGTKVDIKRTVAAPDTVVTQSPAFLSVTPGEKVTITCITSTDIDVDMNWYQQKPDQPPKLLISQGNTLRPGVPSRFSSSGSGTDFTFTISSLEAEDAATYYCLQSDNLPLTFGQGTKLEIKRTVAAPSVFIFPPSDEQLKSGTASVVCLLNNFYPREAKVQWKVDNALQSGNSQESVTEQDSKDSTYSLSSTLTLSKADYEKHKVYACEVTHQGLSSPVTKSFNRGEC
notes: DVD-Ig, outer AB274, inner AB271, linker set 1; V1 wt hIgG1, V2 kappa; also called DVD1279H; DVD1279L
B10: DVD1281 (bispecific antibody, human IgG1, kappa)
heavy: not shown
light: B8 light with D114E, Q116T
notes: DVD-Ig, outer AB274, inner AB272, linker set 1; V1 wt hIgG1, V2 kappa; also called DVD1281H; DVD1281L
B11: DVD1283 (bispecific antibody, human IgG1, kappa)
heavy: not shown
light: B6 light with D28N, P43S, T55I, G84A, T91S, S93T, Y96H, P100Q
notes: V1 wt hIgG1, V2 kappa; also called DVD1283H; DVD1283L
B12: DVD1285 (bispecific antibody, human IgG1, kappa)
heavy: not shown
light: B6 light with D28N, P43S, T55I, G84A, T91S, S93T, Y96H, P100Q
notes: V1 wt hIgG1, V2 kappa; also called DVD1285H; DVD1285L

molecular target: T2, Recombinant Human IL-1β (human, UniProt P01584 117-269); assay: Biacore SPR; C-terminal VD
T2 construct: bought reagent; also called IL-1B
Experimental: (§1) The BIACORE assay (Biacore, Inc, Piscataway, N.J.) determines the affinity of antibodies or DVD-Ig with kinetic measurements of on-rate and off-rate constants. Binding of antibodies or DVD-Ig to a target antigen (for example, a purified recombinant target antigen) was determined by surface plasmon resonance-based measurements with a Biacore® 1000 or 3000 instrument (Biacore® AB, Uppsala, Sweden) using running HBS-EP (10 mM HEPES [pH 7.4], 150 mM NaCl, 3 mM EDTA, and 0.005% surfactant P20) at 25° C. All chemicals were obtained from Biacore® AB (Uppsala, Sweden) or otherwise from a different source as described in the text. For example, approximately 5000 RU of goat anti-mouse IgG, (Fcγ), fragment specific polyclonal antibody (Pierce Biotechnology Inc, Rockford, Ill.) diluted in 10 mM sodium acetate (pH 4.5) was directly immobilized across a CM5 research grade biosensor chip using a standard amine coupling kit according to manufacturer's instructions and procedures at 25 μg/ml. Unreacted moieties on the biosensor surface were blocked with ethanolamine. Modified carboxymethyl dextran surface in flowcell 2 and 4 was used as a reaction surface. Unmodified carboxymethyl dextran without goat anti-mouse IgG in flow cell 1 and 3 was used as the reference surface. For kinetic analysis, rate equations derived from the 1:1 Langmuir binding model were fitted simultaneously to association and dissociation phases of all eight injections (using global fit analysis) with the use of Biaevaluation 4.0.1 software. Purified antibodies or DVD-Ig were diluted in HEPES-buffered saline for capture across goat anti-mouse IgG specific reaction surfaces. Antibodies or DVD-Ig to be captured as a ligand (25 μg/ml) were injected over reaction matrices at a flow rate of 5 μl/min. The association and dissociation rate constants, kₒₙ (M⁻¹s⁻¹) and koff (s⁻¹) were determined under a continuous flow rate of 25 μl/min. Rate constants were derived by making kinetic binding measurements at different antigen concentrations ranging from 10−200 nM. The equilibrium dissociation constant (M) of the reaction between antibodies or DVD-Igs and the target antigen was then calculated from the kinetic rate constants by the following formula: KD=koff/kₒₙ. Binding was recorded as a function of time and kinetic rate constants are calculated.

| Kd | koff | kon | Binder |
| --- | --- | --- | --- |
| 170 pM | 0.00015 s⁻¹ | 890000 M⁻¹ s⁻¹ | B1 |
| 88 pM | 0.0003 s⁻¹ | 3.4e+06 M⁻¹ s⁻¹ | B2 |
| 1100 pM | 0.00041 s⁻¹ | 370000 M⁻¹ s⁻¹ | B3 |
| 1100 pM | 0.00043 s⁻¹ | 400000 M⁻¹ s⁻¹ | B4 |
| 2200 pM | 0.00071 s⁻¹ | 320000 M⁻¹ s⁻¹ | B5 |
| 270 pM | 0.00019 s⁻¹ | 690000 M⁻¹ s⁻¹ | B6 |
| 150 pM | 0.00011 s⁻¹ | 760000 M⁻¹ s⁻¹ | B7 |
| 2100 pM | 0.00049 s⁻¹ | 230000 M⁻¹ s⁻¹ | B8 |
| 1400 pM | 0.00045 s⁻¹ | 320000 M⁻¹ s⁻¹ | B9 |
| 2000 pM | 0.00058 s⁻¹ | 280000 M⁻¹ s⁻¹ | B10 |
| 100 pM | 0.00026 s⁻¹ | 2.5e+06 M⁻¹ s⁻¹ | B11 |
| 240 pM | 0.0002 s⁻¹ | 820000 M⁻¹ s⁻¹ | B12 |

molecular target: T1, Recombinant Human IL-17; assay: Biacore SPR; N-terminal VD
Experimental: as §1

| Kd | koff | kon | Binder |
| --- | --- | --- | --- |
| 61 pM | 7.8e-06 s⁻¹ | 130000 M⁻¹ s⁻¹ | B1 |
| 96 pM | 1.1e-05 s⁻¹ | 120000 M⁻¹ s⁻¹ | B2 |
| ≤ 66 pM | ≤ 1e-05 s⁻¹ | 150000 M⁻¹ s⁻¹ | B3 |
| 32 pM | 5e-06 s⁻¹ | 160000 M⁻¹ s⁻¹ | B4 |
| 110 pM | 1.2e-05 s⁻¹ | 110000 M⁻¹ s⁻¹ | B5 |
| 200 pM | 2.2e-05 s⁻¹ | 110000 M⁻¹ s⁻¹ | B6 |
| 150 pM | 2.1e-05 s⁻¹ | 140000 M⁻¹ s⁻¹ | B7 |
| 160 pM | 2.2e-05 s⁻¹ | 130000 M⁻¹ s⁻¹ | B8 |
| 120 pM | 2.3e-05 s⁻¹ | 190000 M⁻¹ s⁻¹ | B9 |
| 100 pM | 2e-05 s⁻¹ | 200000 M⁻¹ s⁻¹ | B10 |
| 460 pM | 5.8e-05 s⁻¹ | 130000 M⁻¹ s⁻¹ | B11 |
| 390 pM | 5.8e-05 s⁻¹ | 150000 M⁻¹ s⁻¹ | B12 |
